According to article PMC4243950, “Characterization of the accessory protein ClpT1 from Arabidopsis thaliana: oligomerization status and interaction with Hsp100 chaperones” (BMC Plant Biology, 2014):
Each block holds one molecule with its values, some of them ahead of it.

Experiments:
ClpC2 = target: T1, ClpC2 (Arabidopsis thaliana, UniProt Q9SXJ7); experiment: ATPase, inorganic phosphate release, Malachite green; type: biochemical; conditions: ClpC2 0.5 uM; basal activity without ClpT1
T1 construct: Hsp100 chaperones can assemble into hexamers
T1 sequence (Q9SXJ7 46-952): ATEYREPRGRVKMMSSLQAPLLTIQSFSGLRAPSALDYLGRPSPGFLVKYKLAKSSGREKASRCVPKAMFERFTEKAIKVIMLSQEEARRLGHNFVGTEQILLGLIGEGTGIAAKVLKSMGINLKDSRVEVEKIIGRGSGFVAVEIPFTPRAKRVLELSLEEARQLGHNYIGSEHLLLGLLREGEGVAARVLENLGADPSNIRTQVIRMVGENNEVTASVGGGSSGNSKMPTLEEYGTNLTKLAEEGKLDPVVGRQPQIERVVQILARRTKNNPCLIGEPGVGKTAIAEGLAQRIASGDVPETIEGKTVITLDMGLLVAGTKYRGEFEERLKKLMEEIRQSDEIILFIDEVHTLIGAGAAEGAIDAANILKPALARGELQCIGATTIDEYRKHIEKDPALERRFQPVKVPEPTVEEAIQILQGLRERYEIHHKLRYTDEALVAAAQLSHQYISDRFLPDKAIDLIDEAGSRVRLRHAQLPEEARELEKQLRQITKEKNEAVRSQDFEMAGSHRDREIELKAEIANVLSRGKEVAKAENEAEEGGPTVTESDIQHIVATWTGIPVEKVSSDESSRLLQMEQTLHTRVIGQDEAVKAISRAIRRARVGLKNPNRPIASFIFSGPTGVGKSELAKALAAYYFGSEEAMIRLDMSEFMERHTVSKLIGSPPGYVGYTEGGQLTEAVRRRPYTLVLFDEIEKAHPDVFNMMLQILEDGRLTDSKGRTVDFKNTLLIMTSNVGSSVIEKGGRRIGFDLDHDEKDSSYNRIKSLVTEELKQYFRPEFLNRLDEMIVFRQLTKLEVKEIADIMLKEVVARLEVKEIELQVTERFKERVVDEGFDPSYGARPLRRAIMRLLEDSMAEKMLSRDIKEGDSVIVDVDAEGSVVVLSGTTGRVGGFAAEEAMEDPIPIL

[1] = target: ClpT1 (recombinant mature ClpT1 from Arabidopsis thaliana, His-tag removed) (Arabidopsis thaliana) (UniProt Q93WL3); experiment: cross-linking; EGS at 10, 20, 30 and 50-fold molar excess, 25 μM protein, 50 mM Hepes pH 7.5, 100 mM NaCl, 30 min at room temperature; SDS-PAGE with Coomassie staining
[2] = target: ClpT1 (recombinant mature ClpT1 from Arabidopsis thaliana, His-tag removed) (Arabidopsis thaliana) (UniProt Q93WL3); experiment: SEC; the small dimer peak of the first run collected and reinjected into the column (second SEC step)
[3] = target: ClpT1 (recombinant mature ClpT1 from Arabidopsis thaliana, His-tag removed) (Arabidopsis thaliana) (UniProt Q93WL3); experiment: SEC; 6-fold concentrated sample and 10-fold diluted sample of ClpT1 injected; data not shown
[4] = target: ClpD (recombinant chloroplastic Hsp100 chaperone from Arabidopsis) (Arabidopsis thaliana) (UniProt P42762)
[5] = target: ClpT1 (recombinant mature ClpT1 from Arabidopsis thaliana, His-tag removed) (Arabidopsis thaliana) (UniProt Q93WL3); experiment: SEC; purified ClpT1 on Superdex 75 10/300 GL, 0.5 mL/min, 50 mM Tris-HCl pH 8.0, 100 mM NaCl; monomer and dimer peaks integrated
[6] = target: ClpD (recombinant chloroplastic Hsp100 chaperone from Arabidopsis) (Arabidopsis thaliana) (UniProt P42762); experiment: ultrafiltration (retention by a 50 kDa cut-off membrane); ClpC2 or ClpD with ClpT1 or GFP, 1.3 μM each, 50 mM Tris-HCl pH 8.0, 150 mM NaCl, 10 mM MgCl2, 5 mM ATP, 10 min at 25°C; Vivaspin 500, 30 s at 11,500 x g; permeate and retentate on SDS-PAGE, densitometry
[7] = target: ClpC2 (recombinant chloroplastic Hsp100 chaperone from Arabidopsis) (Arabidopsis thaliana) (UniProt Q9SXJ7); experiment: as above
[8] = target: ClpD (recombinant chloroplastic Hsp100 chaperone from Arabidopsis) (Arabidopsis thaliana) (UniProt P42762); remark: listed apart in the source
[9] = target: glutathione S-transferase; experiment: cross-linking; EGS at 10, 20, 30 and 50-fold molar excess, 25 μM protein, 50 mM Hepes pH 7.5, 100 mM NaCl, 30 min at room temperature; SDS-PAGE with Coomassie staining
[10] = substrate: Nc1ncnc2c1ncn2[C@@H]1O[C@H](COP(=O)(O)OP(=O)(O)OP(=O)(O)O)[C@@H](O)[C@H]1O; experiment: ATPase, inorganic phosphate release, Malachite green; Michaelis-Menten fit; type: biochemical, Arabidopsis thaliana; conditions: without ClpT1; ClpD 0.5 uM; ATP varied 0-12 mM, complete saturation not reached (extrapolated)

Molecule: Nc1ncnc2c1ncn2[C@@H]1O[C@H](COP(=O)(O)OP(=O)(O)OP(=O)(O)O)[C@@H](O)[C@H]1O [ATP]
specific activity (ClpC2): Both chaperones have a basal ATPase activity

B1: ClpD (Arabidopsis thaliana) (protein)
chain: AIIFSQKEAKSLGKDMVYTQHLLLGLIAEDRDPQGFLGSGITIDKAREAVWSIWDEANSDSKQEEASSTSYSKSTDMPFSISTKRVFEAAVEYSRTMDCQYIAPEHIAVGLFTVDDGSAGRVLKRLGANMNLLTAAALTRLKGEIAKDGREPSSSSKGSFESPPSGRIAGSGPGGKKAKNVLEQFCVDLTARASEGLIDPVIGREKEVQRVIQILCRRTKNNPILLGEAGVGKTAIAEGLAISIAEASAPGFLLTKRIMSLDIGLLMAGAKERGELEARVTALISEVKKSGKVILFIDEVHTLIGSGTVGRGNKGSGLDIANLLKPSLGRGELQCIASTTLDEFRSQFEKDKALARRFQPVLINEPSEEDAVKILLGLREKYEAHHNCKYTMEAIDAAVYLSSRYIADRFLPDKAIDLIDEAGSRARIEAFRKKKEDAICILSKPPNDYWQEIKTVQAMHEVVLSSRQKQDDGDAISDESGELVEESSLPPAAGDDEPILVGPDDIAAVASVWSGIPVQQITADERMLLMSLEDQLRGRVVGQDEAVAAISRAVKRSRVGLKDPDRPIAAMLFCGPTGVGKTELTKALAANYFGSEESMLRLDMSEYMERHTVSKLIGSPPGYVGFEEGGMLTEAIRRRPFTVVLFDEIEKAHPDIFNILLQLFEDGHLTDSQGRRVSFKNALIIMTSNVGSLAIAKGRHGSIGFILDDDEEAASYTGMKALVVEELKNYFRPELLNRIDEIVIFRQLEKAQMMEILNLMLQDLKSRLVALGVGLEVSEPVKELICKQGYDPAYGARPLRRTVTEIVEDPLSEAFLAGSFKPGDTAFVVLDDTGNPSVRTKPDSSTIRVTDKTSIA
notes: Hsp100 chaperones can assemble into hexamers
Km [10]: 19.1 mM

The remaining lines, values ahead:

percent of the total protein cross-linked as dimer at the highest EGS concentration [1]: 60%
stoichiometry N [1]: 2
percent of the total protein in the dimer peak after reinjection of the dimer peak [2]: > 92%
percent dimer compared to the monomer species [3]: < 5%
Vmax of the ClpD ATPase in the presence of ClpT1 at a 1:1 molar ratio (0.19 nmol/(min × μg protein) without ClpT1) (nmol/(min × μg protein)) [4]: 0.43
percent of the total protein in the dimer peak [5]: < 5%
stoichiometry N [5]: 2
percent of ClpT1 kept in the retentate [6]: > 75%
percent of ClpT1 kept in the retentate [7]: > 75%
ATPase activity of ClpD (Malachite green), ClpT1:ClpD molar ratios from approximately 0.15:1 to 6:1; activation over the basal activity, back to the basal value at 6:1 [8]: > 50%
Molecule: ClpT1 (recombinant mature ClpT1 from Arabidopsis thaliana, His-tag removed) (from UniProt Q93WL3 65-238) (natural protein)

stoichiometry N [9]: 2
Molecule: glutathione S-transferase (enzyme)
